Test results taken from IntAct's records for PubMed 17948050.

B1: Mucosa-associated lymphoid tissue lymphoma translocation protein 1 (Homo sapiens), Q9UDY8 (parent)
chain: MSLLGDPLQALPPSAAPTGPLLAPPAGATLNRLREPLLRRLSELLDQAPEGRGWRRLAELAGSRGRLRLSCLDLEQCSLKVLEPEGSPSLCLLKLMGEKGCTVTELSDFLQAMEHTEVLQLLSPPGIKITVNPESKAVLAGQFVKLCCRATGHPFVQYQWFKMNKEIPNGNTSELIFNAVHVKDAGFYVCRVNNNFTFEFSQWSQLDVCDIPESFQRSVDGVSESKLQICVEPTSQKLMPGSTLVLQCVAVGSPIPHYQWFKNELPLTHETKKLYMVPYVDLEHQGTYWCHVYNDRDSQDSKKVEIIIGRTDEAVECTEDELNNLGHPDNKEQTTDQPLAKDKVALLIGNMNYREHPKLKAPLVDVYELTNLLRQLDFKVVSLLDLTEYEMRNAVDEFLLLLDKGVYGLLYYAGHGYENFGNSFMVPVDAPNPYRSENCLCVQNILKLMQEKETGLNVFLLDMCRKRNDYDDTIPILDALKVTANIVFGYATCQGAEAFEIQHSGLANGIFMKFLKDRLLEDKKITVLLDEVAEDMGKCHLTKGKQALEIRSSLSEKRALTDPIQGTEYSAESLVRNLQWAKAHELPESMCLKFDCGVQIQLGFAAEFSNVMIIYTSIVYKPPEIIMCDAYVTDFPLDLDIDPKDANKGTPEETGSYLVSKDLPKHCLYTRLSSLQKLKEHLVFTVCLSYQYSGLEDTVEDKQEVNVGKPLIAKLDMHRGLGRKTCFQTCLMSNGPYQSSAATSGGAGHYHSLQDPFHGVYHSHPGNPSNVTPADSCHCSRTPDAFISSFAHHASCHFSRSNVPVETTDEIPFSFSDRLRISEK

Variants of: B1
Settings: with ubc_human UBC

Row | Variant | effect of a mutation on the interaction
1 | K644R;K648R;K661R;K665R;K677R;K679R;K702R;K709R;K714R;K724R;K824R | disrupting interaction
